Measurements reported in patent US9255256B2, “Expression of functional cytochorome P450 monooxygenase system in enterobacteria” (priority 1996, dated 2016).
Where two headings read alike, the source gives them in different places.

Experiments:
[1] = target: T1, human P450 reductase fused at its N-terminus to the bacterial pelB leader sequence (bacterial; human) (UniProt P16435); test: cell-based or functional assay
T1 sequence: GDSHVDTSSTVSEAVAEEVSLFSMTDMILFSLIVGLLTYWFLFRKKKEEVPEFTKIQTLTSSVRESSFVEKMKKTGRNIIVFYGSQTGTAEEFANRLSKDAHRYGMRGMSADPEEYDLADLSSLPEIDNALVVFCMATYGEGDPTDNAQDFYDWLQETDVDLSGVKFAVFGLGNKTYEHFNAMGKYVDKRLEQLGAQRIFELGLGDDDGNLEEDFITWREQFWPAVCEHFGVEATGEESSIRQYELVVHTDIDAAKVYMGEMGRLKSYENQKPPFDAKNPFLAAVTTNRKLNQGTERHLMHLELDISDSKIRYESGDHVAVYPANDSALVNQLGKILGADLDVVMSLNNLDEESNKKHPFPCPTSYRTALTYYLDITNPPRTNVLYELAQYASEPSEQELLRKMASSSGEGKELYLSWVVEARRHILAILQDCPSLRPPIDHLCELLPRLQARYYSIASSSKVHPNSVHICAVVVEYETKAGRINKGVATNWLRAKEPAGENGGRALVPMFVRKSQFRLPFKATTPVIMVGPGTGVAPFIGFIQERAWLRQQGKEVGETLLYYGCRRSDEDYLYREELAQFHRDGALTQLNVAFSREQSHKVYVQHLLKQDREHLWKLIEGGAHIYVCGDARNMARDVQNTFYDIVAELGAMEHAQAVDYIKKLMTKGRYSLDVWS

[2] = target: bacterial flavodoxin/NADPH-flavodoxin reductase system or another bacterial reductase; test: cell-based or functional assay
CYP3A4 [3] = conditions: reconstituted system, Gillam et al (1993); cited from earlier work
CYP3A4 [4] = test: Testosterone 6β-hydroxylase assay, bacterial membrane fractions; type: biochemical, human; conditions: in the presence of cumene hydroperoxide, no reductase
Target sequence in this assay (P08684 19-503 limits assumed): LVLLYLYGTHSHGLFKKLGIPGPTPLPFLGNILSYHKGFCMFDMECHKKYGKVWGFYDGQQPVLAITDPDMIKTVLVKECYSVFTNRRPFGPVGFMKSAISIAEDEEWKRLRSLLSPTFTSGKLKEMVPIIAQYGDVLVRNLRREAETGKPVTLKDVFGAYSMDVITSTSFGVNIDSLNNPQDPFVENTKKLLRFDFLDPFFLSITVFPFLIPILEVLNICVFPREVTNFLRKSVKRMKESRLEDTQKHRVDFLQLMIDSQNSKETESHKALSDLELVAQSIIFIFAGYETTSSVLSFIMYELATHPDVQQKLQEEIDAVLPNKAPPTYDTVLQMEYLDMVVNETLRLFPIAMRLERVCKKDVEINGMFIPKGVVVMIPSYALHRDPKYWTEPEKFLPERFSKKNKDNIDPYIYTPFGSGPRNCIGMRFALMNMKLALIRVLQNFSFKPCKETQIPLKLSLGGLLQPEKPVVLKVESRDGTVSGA
Experimental: Assays were carried out with cells and membrane fractions. In both cases, approximately 100 pmol P450 was incubated with shaking in TSE containing 30 mM MgCl2. The final testosterone concentration was 0.2 mM. Where membranes were used, an NADPH generating system was is added (final concentration 1 mM NADP, 5 mM glucose-6-phosphate, 1 unit glucose-6-phosphate dehydrogenase). Reactions were carried out at 37° C. for 5 minutes, then stopped by addition of 1 ml ice-cold methanol and placed on ice for 10 minutes. Following centrifugation, supernatants were diluted with an equal volume of ice-cold water, and the testosterone metabolites extracted using Isolute C18 columns (IST Ltd), and eluted in 1 ml methanol. […] The yield of the 6β-hydroxytestosterone was calculated by reference to a standard of known concentration, and this allowed determination of the specific activity of the recombinant CYP3A4 towards testosterone.
Direct determination of the catalytic activity of the expressed proteins was not possible due to the absence of P450 reductase in bacterial membranes. The P450 enzyme activity was therefore determined in the presence of cumene hydroperoxide which serves as an artificial oxygen donor for P450s.

[5] = target: T1, human P450 reductase fused at its N-terminus to the bacterial pelB leader sequence (bacterial; human); test: cell-based or functional assay; remark: listed apart in the source
[6] = target: T2, human P450 reductase fused at its N-terminus to the bacterial pelB leader sequence, P16435
T2 chain: T1 sequence

P450 reductase [7] = target: T3, P450 reductase (Homo sapiens, UniProt P16435)
T3 sequence (P16435 with tags, fused parts or gaps): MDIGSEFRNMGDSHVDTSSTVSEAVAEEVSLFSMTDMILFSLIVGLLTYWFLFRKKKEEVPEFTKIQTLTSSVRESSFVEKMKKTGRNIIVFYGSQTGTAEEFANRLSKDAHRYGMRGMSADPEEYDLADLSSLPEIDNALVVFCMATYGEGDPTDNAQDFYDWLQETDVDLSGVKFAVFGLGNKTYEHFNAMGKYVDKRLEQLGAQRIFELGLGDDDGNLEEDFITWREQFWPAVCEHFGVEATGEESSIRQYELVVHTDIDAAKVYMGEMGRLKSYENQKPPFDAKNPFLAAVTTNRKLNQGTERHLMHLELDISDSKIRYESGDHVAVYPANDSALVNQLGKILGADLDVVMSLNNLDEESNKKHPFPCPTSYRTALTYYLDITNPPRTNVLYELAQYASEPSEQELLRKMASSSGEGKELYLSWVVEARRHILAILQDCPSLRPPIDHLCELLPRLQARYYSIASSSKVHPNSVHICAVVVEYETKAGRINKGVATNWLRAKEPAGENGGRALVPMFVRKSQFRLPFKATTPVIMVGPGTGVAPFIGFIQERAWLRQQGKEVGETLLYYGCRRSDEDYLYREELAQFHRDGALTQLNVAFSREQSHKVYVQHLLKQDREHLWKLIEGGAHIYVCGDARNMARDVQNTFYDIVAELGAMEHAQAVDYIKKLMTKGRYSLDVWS
Experimental: (§1) An equal volume of ice-cold distilled water was then added. The CYP3A4 content was determined using Fe^2—CO vs Fe^2+ difference spectra by adding 50 μl whole cell suspension in 1×TSE to 950 μl 100 mM Tris. Cl (pH 7.4), 10 mM CHAPS, 20% v/v glycerol, 1 mM EDTA and reducing by adding a few grains of sodium dithionite. A baseline of zero absorbance was recorded between 500 and 400 nm, then the sample cuvette was bubbled under a steady stream of CO for about 1 minute. A spectrum was then recorded and the yield of spectrally active CYP3A4/1 culture determined. At this stage, an aliquot of whole cells was withdrawn for metabolism studies. […] The CYP3A4 and reductase content of the membranes was determined. The yield of active reductase was evaluated by a spectrophotometric assay, as follows. To 990 μl 50 μM cytochrome c in 0.3 M potassium phosphate buffer (pH 7.7), 1-10 μg membrane protein was added, and a baseline recorded. 50 μM NADPH was added and ΔA550 nm was recorded over time. To determine the P450 contents of membranes, spectra were obtained as for whole cells.

CYP2D6 [8] = target: T4, CYP2D6 (Homo sapiens, UniProt P10635); type: biochemical
T4 construct: in frame to the 5′-end of the full length P450 cDNA; made in house; host or cells: E. coli JM109, membrane fractions
Experimental: Assays on bacterial membrane fractions were carried out at 37° C. in 50 mM potassium phosphate buffer, pH 7.4, containing 20 or 50 pmol CYP2D6, 50 μM (±)-bufuralol, and a NADPH regenerating system (see Example 1) in a total volume of 300 μl. For membranes isolated from cells carrying pCW/ompA-CYP2D6 only (ie. no reductase co-expressed), the NADPH regenerating system was replaced by 100 μM cumene hydroperoxide. Reactions were stopped by the addition of 15 μl of 60% perchloric acid and placed on ice for 5-10 min. Precipitated proteins were removed by centrifugation, and then the supernatants were analysed for 1′-hydroxybufuralol by reversed-phase HPLC, with reference to authentic standard. Separation was achieved using a Spherisorb 5 μm ODS-2 column 25 cm×4.6 mm, and a mobile phase of 0.1 M ammonium acetate (pH 5.0) with a linear gradient of acetonitrile (27 to 51% in 12 min). Detection was by fluorescence using excitation and emission wavelengths of 252 and 302 nm, respectively.
For the determination of Michaelis-Menten kinetic parameters, incubations were carried out for 5 min with 20 pmol CYP2D6 and varying concentrations of substrate (0 to 100 μM). Km and νmax were estimated from double-reciprocal plots of initial reaction velocity versus substrate concentration.

CYP2D6 [9] = target: T4, CYP2D6; test: Bufuralol 1′-hydroxylase assay, whole cells; type: cell-based
Experimental: Assays on whole cells were carried out at 37° C. in 50 ml conical flasks, and contained 50 pmol CYP2D6, 50 μM (±)-bufuralol and 1×TSE buffer in a total volume of 5 ml. Samples (300 μl) were withdrawn at 0, 2, 5 and 10 min into tubes containing 15 μl of 60% perchloric acid on ice. Analysis then proceeded in an identical manner to the membrane assays (see above).

P450 reductase [10] = test: Cytochrome c reductase activity of bacterial membrane fractions; conditions: membranes, expression from pCW, towards cytochrome c (FIG. 4)
Experimental: as §1

Work on “17α-CYP3A4 (optimised CYP3A4 expressed from NF14 / pB216) (from UniProt P08684 1-503) (enzyme)” yielded a nifedipine oxidase turnover, JM109 pB216 whole cells [1] of 15.2 min^-1, a testosterone 6β-hydroxylase turnover, JM109 pB216 whole cells [1] of 17.3 min^-1 and a testosterone 6β-hydroxylase turnover, JM109 NF14 whole cells (CYP3A4 alone) [2] of less than 0.5 min⁻¹.

In the case of “bacterially-expressed CYP3A4: reconstituted system containing bacterially-expressed CYP3A4, Gillam et al (1993)”, the “turnover rates, testosterone 6β-hydroxylation” value (CYP3A4 [3]) is given as “up to 10 nmol 6β-hydroxytestosterone/minute/nmol P450”.

For “ompA-CYP3A4: CYP3A4 fused at its N-terminus to the bacterial ompA leader sequence”, the “turnover number for the 6β-hydroxylation of testosterone” value (CYP3A4 [4]) was 3.2 min⁻¹.

B1: 17α-CYP2A6 (protein)
chain: MLASGMLLVALLVCLTVMVLMSVWQQRKSKGKLPPGPTPLPFIGNYLQLNTEQMYNSLMKISERYGPVFTIHLGPRRVVVLCGHDAVREALVDQAEEFSGRGEQATFDWVFKGYGVVFSNGERAKQLRRFSIATLRDFGVGKRGIEERIQEEAGFLIDALRGTGGANIDPTFFLSRTVSNVISSIVFGDRFDYKDKEFLSLLRMMLGIFQFTSTSTGQLYEMFSSVMKHLPGPQQQAFQLLQGLEDFIAKKVEHNQRTLDPNSPRDFIDSFLIRMQEEEKNPNTEFYLKNLVMTTLNLFIGGTETVSTTLRYGFLLLMKHPEVEAKVHEEIDRVIGKNRQPKFEDRAKMPYMEAVIHEIQRFGDVIPMSLARRVKKDTKFRDFFLPKGTEVYPMLGSVLRDPSFFSNPQDFNPQHFLNEKGQFKKSDAFVPFSIGKRNCFGEGLARMELFLFFTTVMQNFRLKSSQSPKDIDVSPKHVGFATIPRNYTMSFLPR
B1 showed a coumarin 7-hydroxylase activity, shocked cells (nmol/min/nmol P450) [1] of 0.75.

B2: ompA-CYP2A6 (enzyme, human)
chain: B1 chain
Work on B2 yielded a coumarin 7-hydroxylase activity, shocked cells (nmol/min/nmol P450) [5] of less than 0.02.

B3: ompA(+2)-CYP2A6 (enzyme, human)
chain: APMLASGMLLVALLVCLTVMVLMSVWQQRKSKGKLPPGPTPLPFIGNYLQLNTEQMYNSLMKISERYGPVFTIHLGPRRVVVLCGHDAVREALVDQAEEFSGRGEQATFDWVFKGYGVVFSNGERAKQLRRFSIATLRDFGVGKRGIEERIQEEAGFLIDALRGTGGANIDPTFFLSRTVSNVISSIVFGDRFDYKDKEFLSLLRMMLGIFQFTSTSTGQLYEMFSSVMKHLPGPQQQAFQLLQGLEDFIAKKVEHNQRTLDPNSPRDFIDSFLIRMQEEEKNPNTEFYLKNLVMTTLNLFIGGTETVSTTLRYGFLLLMKHPEVEAKVHEEIDRVIGKNRQPKFEDRAKMPYMEAVIHEIQRFGDVIPMSLARRVKKDTKFRDFFLPKGTEVYPMLGSVLRDPSFFSNPQDFNPQHFLNEKGQFKKSDAFVPFSIGKRNCFGEGLARMELFLFFTTVMQNFRLKSSQSPKDIDVSPKHVGFATIPRNYTMSFLPR
In the case of B3, the coumarin 7-hydroxylase activity, shocked cells (nmol/min/nmol P450) [5] is reported as 0.29 and the coumarin 7-hydroxylase activity, membranes [6] is reported as 1.

B4: ompA-CYP2D6 (protein)
chain: MGLEALVPLAVIVAIFLLLVDLMHRRQRWAARYPPGPLPLPGLGNLLHVDFQNTPYCFDQLRRRFGDVFSLQLAWTPVVVLNGLAAVREALVTHGEDTADRPPVPITQILGFGPRSQGVFLARYGPAWREQRRFSVSTLRNLGLGKKSLEQWVTEEAACLCAAFANHSGRPFRPNGLLDKAVSNVIASLTCGRRFEYDDPRFLRLLDLAQEGLKEESGFLREVLNAVPVLLHIPALAGKVLRFQKAFLTQLDELLTEHRMTWDPAQPPRDLTEAFLAEMEKAKGNPESSFNDENLRIVVADLFSAGMVTTSTTLAWGLLLMILHPDVQRRVQQEIDDVIGQVRRPEMGDQAHMPYTTAVIHEVQRFGDIVPLGVTHMTSRDIEVQGFRIPKGTTLITNLSSVLKDEAVWEKPFRFHPEHFLDAQGHFVKPEAFLPFSAGRRACLGEPLARMELFLFFTSLLQHFSFSVPTGQPRPSHHGVFAFLVSPSPYELCAVPR
With B4 the “cytochrome c reductase activity” value (P450 reductase [7]) was 530 nmol/min/mg, the “CYP2D6-dependent activities on co-expression” value [6] was “couples well with co-expressed reductase, catalysing typical CYP2D6-dependent activities” and the “Vmax of bufuralol 1'-hydroxylation, membranes co-expressing both” value [6] was 13.3 min⁻¹. The “bufuralol 1'-hydroxylase specific activity” value [6] was 1.2 nmoles/min/mg membrane protein, the “bufuralol 1'-hydroxylation turnover number, intact bacteria” value [6] was “turnover numbers of 4.6 min^-1 and 5.7 min^-1 respectively” and the “bufuralol 1'-hydroxylation turnover number, membranes” value [6] was “turnover numbers of 4.6 min^-1 and 5.7 min^-1 respectively”. For the same molecule, the Km (CYP2D6 [8]) was 11.1 µM, the “Vmax, bufuralol 1′-hydroxylation” value (CYP2D6 [8]) was 13.3 min⁻¹ and the “specific activity, bufuralol hydroxylation” value (CYP2D6 [8]) was 1.2 nmoles/min/mg membrane protein. For the same molecule, the “specific activity, fold higher than the value reported for human liver microsomes” value (CYP2D6 [8]) was 40 fold, the “bufuralol 1′-hydroxylase activity, intact E. coli” value (CYP2D6 [9]) was 1.2 nmoles/min/mg protein and the “turnover number, bufuralol hydroxylation, intact bacteria” value (CYP2D6 [9]; co-expressed with pelB-reductase, 50 μM bufuralol, no added NADPH) was 4.6 min⁻¹. The “bufuralol 1′-hydroxylase activity, fold higher than average of a panel of human liver microsomes” value (CYP2D6 [9]; intact E. coli) was “about 20 fold”.

B5: pelB-reductase: human P450 reductase fused at its N-terminus to the pelB leader sequence (protein)
chain: T1 sequence
modifications: left off: small tags and cut ends
For B5, the “reductase activity compared to the native P450 reductase” value (P450 reductase [10]) was “almost ten fold higher”.
